Reference: paper PMC12809912 (2025)
Ends that are not written are not given here. * marks the point of attachment. Biotin = O=C1N[C@H]2[C@H](CS[C@H]2CCCCC(=O)*)N1

Molecular target: T1, biotinylated DEFA5 epitope peptide Biotin-RATCYCRTGRCAT (human, cysteine pairing not given here)
T1 peptide: Biotin-RATCYCRTGRCAT
Experiment: SPR

| Binder | koff [s⁻¹] |
| --- | --- |
| mouse monoclonal antibody clone 4F5 (anti-DEFA5) (antibody, V domains shown, Fc glycosylation, G1F lower and afucosylated G0 ~15 % (intact ESI-MS)) VH: QVQLQQSGAELVRPGASVKMSCKALGYTFFDYEMHWMKQTPVYGLEWIGAIHPGSGDTAYNQKFKGKATLTADKSSNTAYMELSSLTSEDSAVYYCTREGTVVAPFDYWGQGTTLTVSS VL: DVLMTQTPLSLPVSLGDQASISCRSSQSIVHSNGNTYLEWYLQKPGQSPKLLINKVSNRFSGVPDRFSGSGSGTDFTLKISRVEAEDLGVYYCFQGSYVPYTFGGGTKLEIK | 0.00261 |
| mouse monoclonal antibody clone 1A8 (anti-DEFA5) (antibody, V domains shown, Fc glycosylation, mainly the G1F glycoform (intact ESI-MS)) VH: QVQLQQSGAELVRPGASVKMSCKALGYTFFDYEMHWMKQTPVYGLEWIGAIHPGSGDTAYNQKFKGKATLTADKSSNTAYMELSSLTSEDSAVYYCTREGTVVAPFDYWGQGTTLTVSS VL: DVLMTQTPLSLPVSLGDQASISCRSSQSIVHSNGNTYLEWYLQKPGQSPKLLINKVSNRFSGVPDRFSGSGSGTDFTLKISRVEAEDLGVYYCFQGSYVPYTFGGGTKLEIK | 0.00253 |
